Changes are numbered by the printed parent chain.
B1: J3 24mer (other)
chain: KLKQPADGNPDPNANPNVDPNANPNVDPNANPNVDPLSKDIIKLLNEQVNKEMQSSNLYMSMSSWCYTHSLDGAGLFLFDHAAEEYEHAKKLIIFLNENNVPVNLTSISAPEHNFTGLTQIFQKAYEHEQNISESINNITDHAIKSKDHATFNFLQWYVAEQHEEEVLFKDILDKIELIGNENHGLYLADQYVKGIAKSRKS
modifications: glycosylated (engineered glycosylation sites)
notes: Plasmodium falciparum circumsporozoite protein (PfCSP), strain 3D7; J3, full-length junctional peptide beginning with Region I; Self-assembling ferritin nanoparticle; cloned into pHLsec between the leader and a double stop codon (AgeI/KpnI); also called peptide J3-24mer; source: FreeStyle 293 F cells, transfected, purified (snowdrop lectin agarose, Superose 6 SEC); copies: 24
B2: J3R3 60mer (other)
chain: KLKQPADGNPDPNANPNVDPNANPNVDPNANPNVDPNANPNANPNANPGSGNGTGGSMQIYEGKLTAEGLRFGIVASRANHALVDRLVEGAIDAIVRHGGREEDITLVRVCGSWEIPVAAGELARKENISAVIAIGVLCRGATPSFDYIASEVSKGLADLSLELRKPITFGVITADTLEQAIEAAGTCHGNKGWEAALCAIEMANLFKSLRGGSNGTGGSGGSNGT
modifications: glycosylated (engineered glycosylation sites)
notes: Plasmodium falciparum circumsporozoite protein (PfCSP), strain 3D7; J3R3, junctional peptide with three added NANP repeats; linker between the peptide and lumazine synthase; C-terminal extension with two added glycosylation sites; Self-assembling lumazine synthase nanoparticle; cloned into pHLsec between the leader and a double stop codon (AgeI/KpnI); source: FreeStyle 293 F cells, transfected, …
B3: P1 24mer (other)
chain: YGSSSNTRVLNELNYLSKDIIKLLNEQVNKEMQSSNLYMSMSSWCYTHSLDGAGLFLFDHAAEEYEHAKKLIIFLNENNVPVNLTSISAPEHNFTGLTQIFQKAYEHEQNISESINNITDHAIKSKDHATFNFLQWYVAEQHEEEVLFKDILDKIELIGNENHGLYLADQYVKGIAKSRKS
modifications: glycosylated (engineered glycosylation sites)
notes: Plasmodium falciparum circumsporozoite protein (PfCSP), strain 3D7; Self-assembling ferritin nanoparticle; cloned into pHLsec between the leader and a double stop codon (AgeI/KpnI); source: FreeStyle 293 F cells, transfected, purified (snowdrop lectin agarose, Superose 6 SEC); copies: 24
B4: P2 24mer (other)
chain: SNTRVLNELNYDNAGLSKDIIKLLNEQVNKEMQSSNLYMSMSSWCYTHSLDGAGLFLFDHAAEEYEHAKKLIIFLNENNVPVNLTSISAPEHNFTGLTQIFQKAYEHEQNISESINNITDHAIKSKDHATFNFLQWYVAEQHEEEVLFKDILDKIELIGNENHGLYLADQYVKGIAKSRKS
modifications: glycosylated (engineered glycosylation sites)
notes: as for B3
B5: (NANP)6 24mer (other)
chain: NANPNANPNANPNANPNANPNANPLSKDIIKLLNEQVNKEMQSSNLYMSMSSWCYTHSLDGAGLFLFDHAAEEYEHAKKLIIFLNENNVPVNLTSISAPEHNFTGLTQIFQKAYEHEQNISESINNITDHAIKSKDHATFNFLQWYVAEQHEEEVLFKDILDKIELIGNENHGLYLADQYVKGIAKSRKS
modifications: glycosylated (engineered glycosylation sites)
notes: Plasmodium falciparum circumsporozoite protein (PfCSP), strain 3D7; (NANP)6, 24-residue NANP repeat peptide; Self-assembling ferritin nanoparticle; cloned into pHLsec between the leader and a double stop codon (AgeI/KpnI); source: FreeStyle 293 F cells, transfected, purified (snowdrop lectin agarose, Superose 6 SEC); copies: 24
B6: P8 24mer (other)
chain: NYYGKQENWYSLKKNLSKDIIKLLNEQVNKEMQSSNLYMSMSSWCYTHSLDGAGLFLFDHAAEEYEHAKKLIIFLNENNVPVNLTSISAPEHNFTGLTQIFQKAYEHEQNISESINNITDHAIKSKDHATFNFLQWYVAEQHEEEVLFKDILDKIELIGNENHGLYLADQYVKGIAKSRKS
modifications: glycosylated (engineered glycosylation sites)
notes: as for B3
B7: J3 60mer (other)
chain: KLKQPADGNPDPNANPNVDPNANPNVDPNANPNVDPGSGNGTGGSMQIYEGKLTAEGLRFGIVASRANHALVDRLVEGAIDAIVRHGGREEDITLVRVCGSWEIPVAAGELARKENISAVIAIGVLCRGATPSFDYIASEVSKGLADLSLELRKPITFGVITADTLEQAIEAAGTCHGNKGWEAALCAIEMANLFKSLRGGSNGTGGSGGSNGT
modifications: glycosylated (engineered glycosylation sites)
notes: Plasmodium falciparum circumsporozoite protein (PfCSP), strain 3D7; J3, full-length junctional peptide beginning with Region I; linker between the peptide and lumazine synthase; C-terminal extension with two added glycosylation sites; Self-assembling lumazine synthase nanoparticle; cloned into pHLsec between the leader and a double stop codon (AgeI/KpnI); also called peptide J3-60mer; source: …
B8: P1 60mer (other)
chain: YGSSSNTRVLNELNYGSGNGTGGSMQIYEGKLTAEGLRFGIVASRANHALVDRLVEGAIDAIVRHGGREEDITLVRVCGSWEIPVAAGELARKENISAVIAIGVLCRGATPSFDYIASEVSKGLADLSLELRKPITFGVITADTLEQAIEAAGTCHGNKGWEAALCAIEMANLFKSLRGGSNGTGGSGGSNGT
modifications: glycosylated (engineered glycosylation sites)
notes: Plasmodium falciparum circumsporozoite protein (PfCSP), strain 3D7; linker between the peptide and lumazine synthase; C-terminal extension with two added glycosylation sites; Self-assembling lumazine synthase nanoparticle; cloned into pHLsec between the leader and a double stop codon (AgeI/KpnI); source: FreeStyle 293 F cells, transfected, purified (snowdrop lectin agarose, Superose 6 SEC); …
B9: J2 60mer (other)
chain: KLKQPADGNPDPNANPNVDPNANPNVDPGSGNGTGGSMQIYEGKLTAEGLRFGIVASRANHALVDRLVEGAIDAIVRHGGREEDITLVRVCGSWEIPVAAGELARKENISAVIAIGVLCRGATPSFDYIASEVSKGLADLSLELRKPITFGVITADTLEQAIEAAGTCHGNKGWEAALCAIEMANLFKSLRGGSNGTGGSGGSNGT
modifications: glycosylated (engineered glycosylation sites)
notes: Plasmodium falciparum circumsporozoite protein (PfCSP), strain 3D7; J2, minimal junction peptide beginning with Region I; linker between the peptide and lumazine synthase; C-terminal extension with two added glycosylation sites; Self-assembling lumazine synthase nanoparticle; cloned into pHLsec between the leader and a double stop codon (AgeI/KpnI); also called peptide J2-60mer; short junctional …
B10: J3R3 24mer (other)
chain: KLKQPADGNPDPNANPNVDPNANPNVDPNANPNVDPNANPNANPNANPLSKDIIKLLNEQVNKEMQSSNLYMSMSSWCYTHSLDGAGLFLFDHAAEEYEHAKKLIIFLNENNVPVNLTSISAPEHNFTGLTQIFQKAYEHEQNISESINNITDHAIKSKDHATFNFLQWYVAEQHEEEVLFKDILDKIELIGNENHGLYLADQYVKGIAKSRKS
modifications: glycosylated (engineered glycosylation sites)
notes: Plasmodium falciparum circumsporozoite protein (PfCSP), strain 3D7; J3R3, junctional peptide with three added NANP repeats; Self-assembling ferritin nanoparticle; cloned into pHLsec between the leader and a double stop codon (AgeI/KpnI); source: FreeStyle 293 F cells, transfected, purified (snowdrop lectin agarose, Superose 6 SEC); copies: 24
B11: P15 24mer (other)
chain: DNEKLRKPKHKKLKQLSKDIIKLLNEQVNKEMQSSNLYMSMSSWCYTHSLDGAGLFLFDHAAEEYEHAKKLIIFLNENNVPVNLTSISAPEHNFTGLTQIFQKAYEHEQNISESINNITDHAIKSKDHATFNFLQWYVAEQHEEEVLFKDILDKIELIGNENHGLYLADQYVKGIAKSRKS
modifications: glycosylated (engineered glycosylation sites)
notes: as for B3
B12: P9 60mer (other)
chain: KQENWYSLKKNSRSLGSGNGTGGSMQIYEGKLTAEGLRFGIVASRANHALVDRLVEGAIDAIVRHGGREEDITLVRVCGSWEIPVAAGELARKENISAVIAIGVLCRGATPSFDYIASEVSKGLADLSLELRKPITFGVITADTLEQAIEAAGTCHGNKGWEAALCAIEMANLFKSLRGGSNGTGGSGGSNGT
modifications: glycosylated (engineered glycosylation sites)
notes: as for B8
B13: P8 60mer (other)
chain: NYYGKQENWYSLKKNGSGNGTGGSMQIYEGKLTAEGLRFGIVASRANHALVDRLVEGAIDAIVRHGGREEDITLVRVCGSWEIPVAAGELARKENISAVIAIGVLCRGATPSFDYIASEVSKGLADLSLELRKPITFGVITADTLEQAIEAAGTCHGNKGWEAALCAIEMANLFKSLRGGSNGTGGSGGSNGT
modifications: glycosylated (engineered glycosylation sites)
notes: as for B8
B14: (NANP)6 60mer (other)
chain: NANPNANPNANPNANPNANPNANPGSGNGTGGSMQIYEGKLTAEGLRFGIVASRANHALVDRLVEGAIDAIVRHGGREEDITLVRVCGSWEIPVAAGELARKENISAVIAIGVLCRGATPSFDYIASEVSKGLADLSLELRKPITFGVITADTLEQAIEAAGTCHGNKGWEAALCAIEMANLFKSLRGGSNGTGGSGGSNGT
modifications: glycosylated (engineered glycosylation sites)
notes: Plasmodium falciparum circumsporozoite protein (PfCSP), strain 3D7; (NANP)6, 24-residue NANP repeat peptide; linker between the peptide and lumazine synthase; C-terminal extension with two added glycosylation sites; Self-assembling lumazine synthase nanoparticle; cloned into pHLsec between the leader and a double stop codon (AgeI/KpnI); also called (NANP)6 peptide 60mer; source: FreeStyle 293 F …
B15: P2 60mer (other)
chain: SNTRVLNELNYDNAGGSGNGTGGSMQIYEGKLTAEGLRFGIVASRANHALVDRLVEGAIDAIVRHGGREEDITLVRVCGSWEIPVAAGELARKENISAVIAIGVLCRGATPSFDYIASEVSKGLADLSLELRKPITFGVITADTLEQAIEAAGTCHGNKGWEAALCAIEMANLFKSLRGGSNGTGGSGGSNGT
modifications: glycosylated (engineered glycosylation sites)
notes: as for B8
B16: P9 24mer (other)
chain: KQENWYSLKKNSRSLLSKDIIKLLNEQVNKEMQSSNLYMSMSSWCYTHSLDGAGLFLFDHAAEEYEHAKKLIIFLNENNVPVNLTSISAPEHNFTGLTQIFQKAYEHEQNISESINNITDHAIKSKDHATFNFLQWYVAEQHEEEVLFKDILDKIELIGNENHGLYLADQYVKGIAKSRKS
modifications: glycosylated (engineered glycosylation sites)
notes: as for B3
B17: C-term WT 60mer (other)
chain: EPSDKHIKEYLNKIQNSLSTEWSPCSVTCGNGIQVRIKPGSANKPKDELDYANDIEKKICKMEKCGGSMQIYEGKLTAEGLRFGIVASRANHALVDRLVEGAIDAIVRHGGREEDITLVRVCGSWEIPVAAGELARKENISAVIAIGVLCRGATPSFDYIASEVSKGLADLSLELRKPITFGVITADTLEQAIEAAGTCHGNKGWEAALCAIEMANLFKSLRGGSNGTGGSGGSNGT
modifications: glycosylated (engineered glycosylation sites)
notes: Plasmodium falciparum circumsporozoite protein (PfCSP), strain 3D7; wild-type C-terminal αTSR domain, without the C-terminal linker; linker; C-terminal extension with two added glycosylation sites; Self-assembling lumazine synthase nanoparticle; cloned into pHLsec between the leader and a double stop codon (AgeI/KpnI); also called wild-type C-terminal domain on 60mer; WT αTSR 60mer; source: …
B18: C-term MD1 60mer (other)
chain: B17 chain with K5N, I7T, E9S, L11Y, N12A, D47A, E48N, D50T
modifications: glycosylated (engineered glycosylation sites)
notes: Plasmodium falciparum circumsporozoite protein (PfCSP), strain 3D7; C-terminal αTSR domain, Rosetta-designed variant MD1; linker; C-terminal extension with two added glycosylation sites; Self-assembling lumazine synthase nanoparticle; cloned into pHLsec between the leader and a double stop codon (AgeI/KpnI); also called modified-1 C-term 60mer; MD1 αTSR 60mer; source: FreeStyle 293 F cells, …
B19: C-term MD1 24mer (other)
chain: EPSDNHTKSYYAKIQNSLSTEWSPCSVTCGNGIQVRIKPGSANKPKANLTYANDIEKKICKMEKCGGSLSKDIIKLLNEQVNKEMQSSNLYMSMSSWCYTHSLDGAGLFLFDHAAEEYEHAKKLIIFLNENNVPVNLTSISAPEHNFTGLTQIFQKAYEHEQNISESINNITDHAIKSKDHATFNFLQWYVAEQHEEEVLFKDILDKIELIGNENHGLYLADQYVKGIAKSRKS
modifications: glycosylated (engineered glycosylation sites)
notes: Plasmodium falciparum circumsporozoite protein (PfCSP), strain 3D7; C-terminal αTSR domain, Rosetta-designed variant MD1; linker; Self-assembling ferritin nanoparticle; cloned into pHLsec between the leader and a double stop codon (AgeI/KpnI); also called modified-1 C-term 24mer; MD1 αTSR 24mer; source: FreeStyle 293 F cells, transfected, purified (snowdrop lectin agarose, Superose 6 SEC); …
B20: C-term WT 24mer (other)
chain: B19 chain with N5K, T7I, S9E, Y11L, A12N, A47D, N48E, T50D
modifications: glycosylated (engineered glycosylation sites)
notes: Plasmodium falciparum circumsporozoite protein (PfCSP), strain 3D7; wild-type C-terminal αTSR domain, without the C-terminal linker; linker; Self-assembling ferritin nanoparticle; cloned into pHLsec between the leader and a double stop codon (AgeI/KpnI); also called wild-type C-terminal domain on 24mer; WT αTSR 24mer; source: FreeStyle 293 F cells, transfected, purified (snowdrop lectin agarose, …)
B21: J2 24mer (other)
chain: KLKQPADGNPDPNANPNVDPNANPNVDPLSKDIIKLLNEQVNKEMQSSNLYMSMSSWCYTHSLDGAGLFLFDHAAEEYEHAKKLIIFLNENNVPVNLTSISAPEHNFTGLTQIFQKAYEHEQNISESINNITDHAIKSKDHATFNFLQWYVAEQHEEEVLFKDILDKIELIGNENHGLYLADQYVKGIAKSRKS
modifications: glycosylated (engineered glycosylation sites)
notes: Plasmodium falciparum circumsporozoite protein (PfCSP), strain 3D7; J2, minimal junction peptide beginning with Region I; Self-assembling ferritin nanoparticle; cloned into pHLsec between the leader and a double stop codon (AgeI/KpnI); also called peptide J2-24mer; source: FreeStyle 293 F cells, transfected, purified (snowdrop lectin agarose, Superose 6 SEC); copies: 24

Molecular target: the molecule itself
Test: SEC + SEC-MALS + other: negative stain electron microscopy; self-assembly of the protomer into the nanoparticle; Superose 6 10/300 at 0.5 ml/min with DAWN HELEOS II and Optilab T-rEX detectors, glycan mass corrected by protein-conjugate analysis; nsEM at 0.1 mg/ml in HBS, uranyl formate

Protein	binding result
B1	binds
B2	binds
B3	binds
B4	binds
B5	binds
B6	binds
B7	binds
B8	binds
B9	binds
B10	binds
B11	binds
B12	binds
B13	binds
B14	binds
B15	binds
B16	binds
B17	binds
B18	binds
B19	binds
B20	binds
B21	binds

— PMC12627087, “mRNA delivery of circumsporozoite protein epitope-based malaria vaccines induces protection in a mouse model” (NPJ Vaccines, 2025)
